Legend:
[1] = target: T1, Mtb beta-clamp, OregonGreen488-labeled (Mycobacterium tuberculosis, UniProt P9WNU1 1-402); test: fluorescence intensity titration (OregonGreen-labeled protein); apparent Kd; no Mg2+; 20 mM Tris-Cl pH 7.5, 1 mM DTT, 0.2 mM EDTA, 40 mM NaCl, 22 C, 200 or 500 nM labeled clamp; ex 490 nm, em 517 nm; conditions: protein: recombinant, tags: C-terminal 6xHis, OregonGreen488 maleimide, chain copies: 2, label: none in fluorescence assay, 32P in EMSA
T1 sequence: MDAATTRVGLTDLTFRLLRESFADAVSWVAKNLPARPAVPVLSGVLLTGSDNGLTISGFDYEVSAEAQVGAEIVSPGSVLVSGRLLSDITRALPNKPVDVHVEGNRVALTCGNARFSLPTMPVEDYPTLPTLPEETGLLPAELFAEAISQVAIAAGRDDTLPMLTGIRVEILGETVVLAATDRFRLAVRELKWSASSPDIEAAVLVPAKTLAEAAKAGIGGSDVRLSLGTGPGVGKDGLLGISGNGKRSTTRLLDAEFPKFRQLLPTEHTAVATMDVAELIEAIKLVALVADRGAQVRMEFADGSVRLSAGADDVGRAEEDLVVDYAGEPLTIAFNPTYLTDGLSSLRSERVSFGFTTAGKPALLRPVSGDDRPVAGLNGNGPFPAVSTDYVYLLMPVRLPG

[2] = target: T1, Mtb beta-clamp, OregonGreen488-labeled; test: fluorescence intensity titration (OregonGreen-labeled protein); apparent Kd; abstract gives 300 nM; no Mg2+; 20 mM Tris-Cl pH 7.5, 1 mM DTT, 0.2 mM EDTA, 40 mM NaCl, 22 C, 200 or 500 nM labeled clamp; ex 490 nm, em 517 nm; conditions: protein: recombinant; tags: C-terminal 6xHis; OregonGreen488 maleimide; chain copies: 2; label: none in fluorescence assay; 32P in EMSA

B1: blunt duplex 18/18 (dsDNA)
DNA 1: CCCATCGTATAGCAAGGG
DNA 2: CCCTTGCTATACGATGGG
- Kd ([1]; blunt): 557 nM

B2: nicked duplex (28-mer template + 18-mer + dA10) (dsDNA)
DNA 1: TTTTTTTTTTCCCTTGCTATACGATGGG
DNA 2: CCCATCGTATAGCAAGGG
DNA 3: AAAAAAAAAA
- Kd ([1]; nicked duplex, 18-mer and 10-mer annealed to 28-mer, blunt ends): 530 nM

B3: 18/28-mer primed template (mixed)
DNA 1: TTTTTTTTTTCCCTTGCTATACGATGGG
DNA 2: CCCATCGTATAGCAAGGG
- Kd [2]: 326 nM

Source: paper PMC3335792, “M. tuberculosis Sliding β-Clamp Does Not Interact Directly with the NAD+ -Dependent DNA Ligase”
